Experiment [1] has as its target human glucagon receptor (GCGR) (human, UniProt P47871 26-477). Put plainly: cell-based or functional assay.
For experiment [2], the target named is human GLP-1 receptor (GLP-1R) (human, UniProt P43220 24-463). Put plainly: cell-based or functional assay.

Where no end group is shown, it is not given here. [ ]: non-standard residue; d: D form. Aib = CC(C)(N)C(=O)O

Chain of human GLP-1 receptor (GLP-1R) (P43220 24-463): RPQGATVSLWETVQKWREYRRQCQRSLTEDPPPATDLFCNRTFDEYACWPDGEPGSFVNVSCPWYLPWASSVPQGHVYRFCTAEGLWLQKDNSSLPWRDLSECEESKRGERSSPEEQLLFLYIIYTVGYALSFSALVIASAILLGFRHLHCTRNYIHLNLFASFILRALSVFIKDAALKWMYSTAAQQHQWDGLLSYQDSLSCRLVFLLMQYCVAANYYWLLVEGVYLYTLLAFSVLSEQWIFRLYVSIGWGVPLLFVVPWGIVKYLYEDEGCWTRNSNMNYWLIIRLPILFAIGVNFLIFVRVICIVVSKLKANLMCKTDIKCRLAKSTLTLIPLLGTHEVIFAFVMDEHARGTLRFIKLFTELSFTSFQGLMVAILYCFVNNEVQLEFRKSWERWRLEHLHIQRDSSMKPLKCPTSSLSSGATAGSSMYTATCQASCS

B1: Compound A60 (peptide)
peptide: YTHGTFTSDYSKYLD[Aib]KRAQEFV[Aib]WLEDEPSSGKPPPS-OH
modifications: N-terminus assumed
SMILES: CC(C)C[C@H](NC(=O)[C@H](Cc1ccc(O)cc1)NC(=O)[C@H](CCCCN)NC(=O)[C@H](CO)NC(=O)[C@H](Cc1ccc(O)cc1)NC(=O)[C@H](CC(=O)O)NC(=O)[C@H](CO)NC(=O)[C@@H](NC(=O)[C@H](Cc1ccccc1)NC(=O)[C@@H](NC(=O)CNC(=O)[C@H](Cc1c[nH]cn1)NC(=O)[C@@H](NC(=O)[C@@H](N)Cc1ccc(O)cc1)[C@@H](C)O)[C@@H](C)O)[C@@H](C)O)C(=O)N[C@@H](CC(=O)O)C(=O)NC(C)(C)C(=O)N[C@@H](CCCCN)C(=O)N[C@@H](CCCNC(=N)N)C(=O)N[C@@H](C)C(=O)N[C@@H](CCC(N)=O)C(=O)N[C@@H](CCC(=O)O)C(=O)N[C@@H](Cc1ccccc1)C(=O)N[C@H](C(=O)NC(C)(C)C(=O)N[C@@H](Cc1c[nH]c2ccccc12)C(=O)N[C@@H](CC(C)C)C(=O)N[C@@H](CCC(=O)O)C(=O)N[C@@H](CC(=O)O)C(=O)N[C@@H](CCC(=O)O)C(=O)N1CCC[C@H]1C(=O)N[C@@H](CO)C(=O)N[C@@H](CO)C(=O)NCC(=O)N[C@@H](CCCCN)C(=O)N1CCC[C@H]1C(=O)N1CCC[C@H]1C(=O)N1CCC[C@H]1C(=O)N[C@@H](CO)C(=O)O)C(C)C
Consider B1, for which the “hGCGR pEC50 (cAMP)” value in experiment [1] was determined as 11.3 pEC50. Besides, the “hGLP1 pEC50 (cAMP)” value in experiment [2] was below 9 pEC50.

With YSHGTFTSDYSKYLDSARAQEFVKWLEDEPSSGKPPPS-OH [Compound A61], in experiment [1], the “hGCGR pEC50 (cAMP)” value was 11.4 pEC50. The “hGLP1 pEC50 (cAMP)” value in experiment [2] was below 9 pEC50.

B2: Compound A64 (peptide)
peptide: YTHGTFTSDYSKYLD[Aib]ARAQEFV[Aib]WLEDEPSSGAPPPS-OH
modifications: N-terminus assumed
SMILES: CC(C)C[C@H](NC(=O)[C@H](Cc1ccc(O)cc1)NC(=O)[C@H](CCCCN)NC(=O)[C@H](CO)NC(=O)[C@H](Cc1ccc(O)cc1)NC(=O)[C@H](CC(=O)O)NC(=O)[C@H](CO)NC(=O)[C@@H](NC(=O)[C@H](Cc1ccccc1)NC(=O)[C@@H](NC(=O)CNC(=O)[C@H](Cc1c[nH]cn1)NC(=O)[C@@H](NC(=O)[C@@H](N)Cc1ccc(O)cc1)[C@@H](C)O)[C@@H](C)O)[C@@H](C)O)C(=O)N[C@@H](CC(=O)O)C(=O)NC(C)(C)C(=O)N[C@@H](C)C(=O)N[C@@H](CCCNC(=N)N)C(=O)N[C@@H](C)C(=O)N[C@@H](CCC(N)=O)C(=O)N[C@@H](CCC(=O)O)C(=O)N[C@@H](Cc1ccccc1)C(=O)N[C@H](C(=O)NC(C)(C)C(=O)N[C@@H](Cc1c[nH]c2ccccc12)C(=O)N[C@@H](CC(C)C)C(=O)N[C@@H](CCC(=O)O)C(=O)N[C@@H](CC(=O)O)C(=O)N[C@@H](CCC(=O)O)C(=O)N1CCC[C@H]1C(=O)N[C@@H](CO)C(=O)N[C@@H](CO)C(=O)NCC(=O)N[C@@H](C)C(=O)N1CCC[C@H]1C(=O)N1CCC[C@H]1C(=O)N1CCC[C@H]1C(=O)N[C@@H](CO)C(=O)O)C(C)C
As to B2, the “hGCGR pEC50 (cAMP)” value in experiment [1] stood at 10.7 pEC50. The “hGLP1 pEC50 (cAMP)” value in experiment [2] is below 9 pEC50.

B3: Compound A67 (peptide)
peptide: YSHGTFTSDYSKYLD[Aib]ARAQEFV[Aib]WLEDEPKSKSPPPS-NH2
modifications: N-terminus assumed
SMILES: CC(C)C[C@H](NC(=O)[C@H](Cc1ccc(O)cc1)NC(=O)[C@H](CCCCN)NC(=O)[C@H](CO)NC(=O)[C@H](Cc1ccc(O)cc1)NC(=O)[C@H](CC(=O)O)NC(=O)[C@H](CO)NC(=O)[C@@H](NC(=O)[C@H](Cc1ccccc1)NC(=O)[C@@H](NC(=O)CNC(=O)[C@H](Cc1c[nH]cn1)NC(=O)[C@H](CO)NC(=O)[C@@H](N)Cc1ccc(O)cc1)[C@@H](C)O)[C@@H](C)O)C(=O)N[C@@H](CC(=O)O)C(=O)NC(C)(C)C(=O)N[C@@H](C)C(=O)N[C@@H](CCCNC(=N)N)C(=O)N[C@@H](C)C(=O)N[C@@H](CCC(N)=O)C(=O)N[C@@H](CCC(=O)O)C(=O)N[C@@H](Cc1ccccc1)C(=O)N[C@H](C(=O)NC(C)(C)C(=O)N[C@@H](Cc1c[nH]c2ccccc12)C(=O)N[C@@H](CC(C)C)C(=O)N[C@@H](CCC(=O)O)C(=O)N[C@@H](CC(=O)O)C(=O)N[C@@H](CCC(=O)O)C(=O)N1CCC[C@H]1C(=O)N[C@@H](CCCCN)C(=O)N[C@@H](CO)C(=O)N[C@@H](CCCCN)C(=O)N[C@@H](CO)C(=O)N1CCC[C@H]1C(=O)N1CCC[C@H]1C(=O)N1CCC[C@H]1C(=O)N[C@@H](CO)C(N)=O)C(C)C
On to B3, for which, in experiment [1], the “hGCGR pEC50 (cAMP)” value is 10.9 pEC50. For the same molecule, the “hGLP1 pEC50 (cAMP)” value in experiment [2] is below 9 pEC50.

Consider YTHGTFTSDYSKYLDSARAQEFVKWLEDEPSSGAPPPS-OH [Compound A63], for which, in experiment [1], the “hGCGR pEC50 (cAMP)” value was determined as 10.4 pEC50. Moreover, the “hGLP1 pEC50 (cAMP)” value in experiment [2] is below 9 pEC50.

B4: Compound A62 (peptide)
peptide: YTHGTFTSDYSKYLD[Aib]KRAQEFV[Aib]WLEDEPSSGAPPPS-OH
modifications: N-terminus assumed
SMILES: CC(C)C[C@H](NC(=O)[C@H](Cc1ccc(O)cc1)NC(=O)[C@H](CCCCN)NC(=O)[C@H](CO)NC(=O)[C@H](Cc1ccc(O)cc1)NC(=O)[C@H](CC(=O)O)NC(=O)[C@H](CO)NC(=O)[C@@H](NC(=O)[C@H](Cc1ccccc1)NC(=O)[C@@H](NC(=O)CNC(=O)[C@H](Cc1c[nH]cn1)NC(=O)[C@@H](NC(=O)[C@@H](N)Cc1ccc(O)cc1)[C@@H](C)O)[C@@H](C)O)[C@@H](C)O)C(=O)N[C@@H](CC(=O)O)C(=O)NC(C)(C)C(=O)N[C@@H](CCCCN)C(=O)N[C@@H](CCCNC(=N)N)C(=O)N[C@@H](C)C(=O)N[C@@H](CCC(N)=O)C(=O)N[C@@H](CCC(=O)O)C(=O)N[C@@H](Cc1ccccc1)C(=O)N[C@H](C(=O)NC(C)(C)C(=O)N[C@@H](Cc1c[nH]c2ccccc12)C(=O)N[C@@H](CC(C)C)C(=O)N[C@@H](CCC(=O)O)C(=O)N[C@@H](CC(=O)O)C(=O)N[C@@H](CCC(=O)O)C(=O)N1CCC[C@H]1C(=O)N[C@@H](CO)C(=O)N[C@@H](CO)C(=O)NCC(=O)N[C@@H](C)C(=O)N1CCC[C@H]1C(=O)N1CCC[C@H]1C(=O)N1CCC[C@H]1C(=O)N[C@@H](CO)C(=O)O)C(C)C
Turning to B4, the “hGCGR pEC50 (cAMP)” value in experiment [1] came out at 11.5 pEC50. Further, in experiment [2], the “hGLP1 pEC50 (cAMP)” value is below 9 pEC50.

B5: Compound A65 (peptide)
peptide: YSHGTFTSDYSKYLD[Aib]KRAQEFV[Aib]WLEDEPKSKEPPPS-NH2
modifications: N-terminus assumed
SMILES: CC(C)C[C@H](NC(=O)[C@H](Cc1ccc(O)cc1)NC(=O)[C@H](CCCCN)NC(=O)[C@H](CO)NC(=O)[C@H](Cc1ccc(O)cc1)NC(=O)[C@H](CC(=O)O)NC(=O)[C@H](CO)NC(=O)[C@@H](NC(=O)[C@H](Cc1ccccc1)NC(=O)[C@@H](NC(=O)CNC(=O)[C@H](Cc1c[nH]cn1)NC(=O)[C@H](CO)NC(=O)[C@@H](N)Cc1ccc(O)cc1)[C@@H](C)O)[C@@H](C)O)C(=O)N[C@@H](CC(=O)O)C(=O)NC(C)(C)C(=O)N[C@@H](CCCCN)C(=O)N[C@@H](CCCNC(=N)N)C(=O)N[C@@H](C)C(=O)N[C@@H](CCC(N)=O)C(=O)N[C@@H](CCC(=O)O)C(=O)N[C@@H](Cc1ccccc1)C(=O)N[C@H](C(=O)NC(C)(C)C(=O)N[C@@H](Cc1c[nH]c2ccccc12)C(=O)N[C@@H](CC(C)C)C(=O)N[C@@H](CCC(=O)O)C(=O)N[C@@H](CC(=O)O)C(=O)N[C@@H](CCC(=O)O)C(=O)N1CCC[C@H]1C(=O)N[C@@H](CCCCN)C(=O)N[C@@H](CO)C(=O)N[C@@H](CCCCN)C(=O)N[C@@H](CCC(=O)O)C(=O)N1CCC[C@H]1C(=O)N1CCC[C@H]1C(=O)N1CCC[C@H]1C(=O)N[C@@H](CO)C(N)=O)C(C)C
Turning to B5, in experiment [1], the “hGCGR pEC50 (cAMP)” value is 12.5 pEC50. For the same molecule, the “hGLP1 pEC50 (cAMP)” value in experiment [2] was below 9 pEC50.

B6: Compound A66 (peptide)
peptide: YSHGTFTSDYSKYLD[Aib]KRAQEFV[Aib]WLEDEPKSKSPPPS-NH2
modifications: N-terminus assumed
SMILES: CC(C)C[C@H](NC(=O)[C@H](Cc1ccc(O)cc1)NC(=O)[C@H](CCCCN)NC(=O)[C@H](CO)NC(=O)[C@H](Cc1ccc(O)cc1)NC(=O)[C@H](CC(=O)O)NC(=O)[C@H](CO)NC(=O)[C@@H](NC(=O)[C@H](Cc1ccccc1)NC(=O)[C@@H](NC(=O)CNC(=O)[C@H](Cc1c[nH]cn1)NC(=O)[C@H](CO)NC(=O)[C@@H](N)Cc1ccc(O)cc1)[C@@H](C)O)[C@@H](C)O)C(=O)N[C@@H](CC(=O)O)C(=O)NC(C)(C)C(=O)N[C@@H](CCCCN)C(=O)N[C@@H](CCCNC(=N)N)C(=O)N[C@@H](C)C(=O)N[C@@H](CCC(N)=O)C(=O)N[C@@H](CCC(=O)O)C(=O)N[C@@H](Cc1ccccc1)C(=O)N[C@H](C(=O)NC(C)(C)C(=O)N[C@@H](Cc1c[nH]c2ccccc12)C(=O)N[C@@H](CC(C)C)C(=O)N[C@@H](CCC(=O)O)C(=O)N[C@@H](CC(=O)O)C(=O)N[C@@H](CCC(=O)O)C(=O)N1CCC[C@H]1C(=O)N[C@@H](CCCCN)C(=O)N[C@@H](CO)C(=O)N[C@@H](CCCCN)C(=O)N[C@@H](CO)C(=O)N1CCC[C@H]1C(=O)N1CCC[C@H]1C(=O)N1CCC[C@H]1C(=O)N[C@@H](CO)C(N)=O)C(C)C
B6: the “hGCGR pEC50 (cAMP)” value in experiment [1] amounted to 12.5 pEC50. Further, the “hGLP1 pEC50 (cAMP)” value in experiment [2] is below 9 pEC50.

For the origin of these results see patent US20180009871A1 (INTARCIA THERAPEUTICS, published 2018).
